The values that follow come from PMC10113246.

Changes are numbered by the printed parent chain.

Assay in all cases: SPR
Holding throughout (parameters): unit not given here
Details in all cases: SPR DBD-TD: 25 mM HEPES pH 7.5, 200 mM NaCl, 0.5 mM TCEP, 0.005% Tween-20, SPR DBD: 10 mM HEPES pH 7.5, 150 mM NaCl, 0.2 mM TCEP

One series has as its target T1, p63 DBD H208Y H247Y (UniProt Q9H3D4).
T1 sequence: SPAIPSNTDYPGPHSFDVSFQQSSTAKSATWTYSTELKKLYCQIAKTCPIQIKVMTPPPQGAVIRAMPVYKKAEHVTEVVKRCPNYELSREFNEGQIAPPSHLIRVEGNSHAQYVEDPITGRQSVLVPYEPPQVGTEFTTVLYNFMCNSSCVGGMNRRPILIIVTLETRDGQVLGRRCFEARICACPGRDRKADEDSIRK

The target of another series is T2, p63 DBD I172A I211A (UniProt Q9H3D4).
T2 sequence: T1 sequence with I50A, Y86H

In another series the target is T3, p63 DBD R204W R243W (UniProt Q9H3D4).
T3 sequence: T1 sequence with R82W, Y86H

A further series has as its target T4, p63 DBD R227Q R266Q (UniProt Q9H3D4).
T4 sequence: T1 sequence with Y86H, R105Q

In another series the target is T5, p63 DBD R279H R318H (UniProt Q9H3D4).
T5 sequence: T1 sequence with Y86H, R157H

Another series deals with T6, p63 DBD R280S R319S (UniProt Q9H3D4).
T6 sequence: T1 sequence with Y86H, R158S

The next series deals with T7, p63 DBD R298Q R337Q (UniProt Q9H3D4).
T7 sequence: T1 sequence with Y86H, R176Q

The next series concerns the target T8, p63 DBD R304W R343W (UniProt Q9H3D4).
T8 sequence: T1 sequence with Y86H, R182W

For the next series, the target named is T9, p63 DBD V202M V241M (UniProt Q9H3D4).
T9 sequence: T1 sequence with V80M, Y86H

For a further series, the target named is T10, p63 DBD WT (UniProt Q9H3D4).
T10 sequence: T1 sequence with Y86H

The target of the next series is T11, p63 DBD Y192C Y231C (UniProt Q9H3D4).
T11 sequence: T1 sequence with Y70C, Y86H

Another series has as its target T12, p63 DBD-TD K193E K232E (UniProt Q9H3D4).
T12 sequence: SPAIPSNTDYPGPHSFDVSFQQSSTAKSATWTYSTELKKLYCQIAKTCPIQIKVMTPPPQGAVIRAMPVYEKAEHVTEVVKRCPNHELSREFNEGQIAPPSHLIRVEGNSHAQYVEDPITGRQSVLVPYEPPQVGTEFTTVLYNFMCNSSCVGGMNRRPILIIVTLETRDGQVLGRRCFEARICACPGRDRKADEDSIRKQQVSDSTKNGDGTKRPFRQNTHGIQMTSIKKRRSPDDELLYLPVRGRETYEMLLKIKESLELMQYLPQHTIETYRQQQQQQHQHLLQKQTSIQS

A further series deals with T13, p63 DBD-TD R227Q R266Q (UniProt Q9H3D4).
T13 sequence: T12 sequence with E71K, R105Q

The target in the next series is T14, p63 DBD-TD R280H R319H (UniProt Q9H3D4).
T14 sequence: T12 sequence with E71K, R158H

Another series deals with T15, p63 DBD-TD R280S R319S (UniProt Q9H3D4).
T15 sequence: T12 sequence with E71K, R158S

For the next series, the target named is T16, p63 DBD-TD R298Q R337Q (UniProt Q9H3D4).
T16 sequence: T12 sequence with E71K, R176Q

The target of another series is T17, p63 DBD-TD R304W R343W (UniProt Q9H3D4).
T17 sequence: T12 sequence with E71K, R182W

A further series has as its target T18, p63 DBD-TD WT (UniProt Q9H3D4).
T18 sequence: T12 sequence with E71K

As for “TTTTTTTTTTTAAACATGTTTAAACATGTTT / AAACATGTTTAAACATGTTT [20 bp p63 consensus sequence (SPR)]”, the Kd with p63 DBD H208Y H247Y was determined as 2060; in the series with p63 DBD I172A I211A, 33.7; in the series with p63 DBD R204W R243W, 510; with p63 DBD R227Q R266Q, 120; in the series with p63 DBD R279H R318H, 202; with p63 DBD R280S R319S it was 351000. For the same sequence, the Kd in the series with p63 DBD R298Q R337Q was 90.8; with p63 DBD R304W R343W, 220; in the series with p63 DBD V202M V241M, 83300; with p63 DBD WT, 30.4; with p63 DBD Y192C Y231C, 1240.

In the case of “TTTTTTTTTTTGAACATGTCCCAACATGTTG / CAACATGTTGGGACATGTTC [p21 response element (SPR)]”, the Kd was 9920 in the series with p63 DBD-TD K193E K232E; 515 with p63 DBD-TD R227Q R266Q; 1120 in the series with p63 DBD-TD R280H R319H; 11800 with p63 DBD-TD R280S R319S; 435 with p63 DBD-TD R298Q R337Q; 27000 in the series with p63 DBD-TD R304W R343W. The Kd with p63 DBD-TD WT was found to be 67.9.
